Results from patent publication US20260028391A1 (HUMABS BIOMED, published 2026).
Positions count from the first letter of the chain named. Names may count otherwise.

Assays:
[1] = target: RSV A fusion glycoprotein (F), virus of the neutralisation assays of Tables 54 and 57 (RSV A); assay: cell-based or functional assay
[2] = target: RSV-B B18537/62 F protein (RSV B, strain B18537/62, UniProt P13843 26-574); assay: cell-based or functional assay
RSV-B B9320 F protein [3] = target: T1, RSV-B B9320 F protein (RSV B, strain B9320); assay: cell-based or functional assay
[4] = target: RSV-long strain fusion glycoprotein (F) (RSV, long strain, UniProt P12568 26-574); assay: cell-based or functional assay
RSV F B S443P = target: T2, RSV F B S443P (RSV B); assay: FACS, % binding to RSV F B variants
T2 construct: whole, on cells; also called mutant S443P

RSV F B K68N-N208S = target: T3, RSV F B K68N-N208S (RSV B); assay: FACS, % binding to RSV F B variants
T3 construct: whole, on cells

RSV F B, B Ref = target: T4, RSV F B, B Ref (RSV B); assay: FACS, % binding to RSV F B variants
T4 construct: whole, on cells

RSV F B N208D = target: T5, RSV F B N208D (RSV B); assay: FACS, % binding to RSV F B variants
T5 construct: whole, on cells

RSV F B N208S = target: T6, RSV F B N208S (RSV B); assay: FACS, % binding to RSV F B variants
T6 construct: whole, on cells; also called mutant N208S

RSV F B K68N-N201S = target: T7, RSV F B K68N-N201S (RSV B); assay: FACS, % binding to RSV F B variants
T7 construct: whole, on cells

RSV F B N201S = target: T8, RSV F B N201S (RSV B); assay: FACS, % binding to RSV F B variants
T8 construct: whole, on cells

[5] = target: fusion glycoprotein (F) of the RSV used in the GFP-based neutralization assay of Table 23 (respiratory syncytial virus); assay: cell-based or functional assay
[6] = target: fusion glycoprotein (F) of the MPV (non-D280N) used in the GFP-based neutralization assay of Table 23 (metapneumovirus); assay: cell-based or functional assay
[7] = target: fusion glycoprotein (F) of MPV A1/6621 (metapneumovirus A1/6621); assay: cell-based or functional assay
DS-Cav1 RSV F [8] = target: T9, DS-Cav1 RSV F (respiratory syncytial virus); assay: ELISA on DS-Cav1 RSV F
T9 construct: also called DC-VCav1

[9] = target: T10, RSV fusion glycoprotein (RSV-F) (respiratory syncytial virus); assay: SPR; F protein loaded on streptavidin sensors, mAb in solution
T10 construct: also called RSV-F wt
Procedure: (§1) Binding affinity of mAbs for RSV-F protein, MPV-F D280 protein, and MPV-F N280 F variant protein was assessed using surface plasmon resonance (SPR).

[10] = target: T11, MPV fusion glycoprotein without the D280N mutation (MPV-F D280) (metapneumovirus); assay: as above
T11 construct: also called MPV F Non-D280N; MPV-F wt
Procedure: as §1

[11] = target: T12, MPV fusion glycoprotein with the D280N mutation (MPV-F N280) (metapneumovirus); assay: as above
T12 construct: also called MPV F D280N; MPV-F D280N
Procedure: as §1

[12] = target: RSV A Randall fusion glycoprotein (F) (RSV A, strain Randall); assay: cell-based or functional assay
RSV-B B9320 F protein [13] = target: T1, RSV-B B9320 F protein; assay: cell-based or functional assay; remark: listed apart in the source
[14] = target: fusion glycoprotein (F) of RSV A/A2/61 (respiratory syncytial virus A/A2/61, UniProt P03420 26-574); assay: cell-based or functional assay
[15] = target: fusion glycoprotein (F) of RSV B/9727 (respiratory syncytial virus B/9727); assay: cell-based or functional assay
[16] = target: T10, RSV fusion glycoprotein (RSV-F); assay: biolayer interferometry (BLI), rIgG1 with M428L/N434S
[17] = target: T11, MPV fusion glycoprotein without the …; assay: as above
[18] = target: T12, MPV fusion glycoprotein with the D280N …; assay: as above
[19] = target: T13, RSV fusion glycoprotein (RSV-F), pre-fusion conformation, recombinant protein loaded on sensors (respiratory syncytial virus (RSV), …); assay: ELISA-type titration, OD 405 nm, on Pre-F
T13 construct: also called RSV-F wt; RSV-F protein

[20] = target: post-fusion RSV F protein (respiratory syncytial virus (RSV), …); assay: ELISA-type titration, OD 405 nm, on Post-F
DS-Cav1 RSV F [21] = target: DS-Cav1 RSV F (respiratory syncytial virus (RSV); …, UniProt P13843 26-513); assay: ELISA on RSV-F Ds-Cav1, 1 ug/ml
[22] = target: T14, RSV F expressed on transfected Expi293F cells (respiratory syncytial virus (RSV)); assay: flow cytometry, transfected Expi293F cells, fixed and permeabilised
biot-RSV-F wt [23] = target: T15, biot-RSV-F wt (respiratory syncytial virus (RSV)); assay: BLI, SA sensor loaded with biot-RSV-F wt, mAb 5 ug/ml, 4 min association, 6 min dissociation
biot-RSV-F wt [24] = target: T15, biot-RSV-F wt; assay: BLI (Octet), biotinylated F on SA sensors, mAb 5 µg/ml
biot-RSV-F wt [25] = target: T15, biot-RSV-F wt; assay: BLI, SA sensor loaded with biot-RSV-F wt, mAb 5 ug/ml, 4 min association, 6 min dissociation; remark: listed apart in the source
[26] = target: T14, RSV F expressed on transfected Expi293F …; assay: flow cytometry, transfected Expi293F cells, fixed and permeabilised; remark: listed apart in the source
[27] = target: T16, MPV F D280N mutant expressed on Expi293F transfected cells (metapneumovirus (MPV), strain ); assay: FACS on Expi293F cells transfected with MPV-F D280N; mouse serum taken 56 d after injection
T16 construct: whole, on cells; also called MPV D280N F; D280N F

[28] = target: T16, MPV F D280N mutant expressed on …; assay: FACS on Expi293F cells transfected with MPV-F D280N; mouse serum taken 2 h after injection
[29] = target: T13, RSV fusion glycoprotein (RSV-F), …; assay: method not said in the sentence; RSV-A as printed
[30] = target: T13, RSV fusion glycoprotein (RSV-F), …; assay: same manner as Experiment 1 (Example 6, Experiment 4)

B1: MPK190-v1.3-rIgG1m17,1-LS (antibody, V domains shown)
VH: QVQLVESGGGLVKPGGSLTLSCAASGFSISGYGMNWVRQAPGRGLEWVASISASSTYIYYADSMKGRFTISRDNGKTSLYLQMKSLRAEDTAVYYCARAPIEPPYFDLWGRGTLVTVSS
VL: QSVLTQPPSVSGAPGQRVTISCTGSSSNIGAGYDVHWYQHLPGKAPKVLIYGNTNRPSVVPDRFSGSNSGASASLAISGLQAEDEADYFCQSYDRRLSGPIFGGGTKLTVLG
[1]
  IC50, neutralization of RSVA: 0.0153 µg/mL
[2]
  EC50, virus neutralization (Fab testing): 0.0247 nM
RSV-B B9320 F protein [3]
  EC50, virus neutralization (Fab testing): 0.017 nM
[4]
  EC50, virus neutralization (Fab testing): 0.105 nM
RSV F B S443P
  % binding: 66.7%
RSV F B K68N-N208S
  % binding: 61.5%
RSV F B, B Ref
  % binding: 72.1%
RSV F B N208D
  % binding: 60.5%
RSV F B N208S
  % binding: 63.4%
RSV F B K68N-N201S
  % binding: 63.3%
RSV F B N201S
  % binding: 63.1%

B2: MPH12 (antibody, IgG1, V domains shown)
VH: QVQLVESGGGLVKPGGSLRLSCVASGFTFSGFYMKWIRQAPGKGLEWVSSISASGSYTNYADSVEGRFTVSRDNAKNSLFLLMSSLRAEDTAVYYCARGDSYCGASACHGEFFHKWGQGTLVTVSS
VL: QSVLTQPPSVSGAPGQRVTISCTGSDSNIGADFDVHWYQQLPGTAPKLLIYGNINRPSGVPDRFSGSRSGTSAFLAITRLQAEDEADYYCQSYDRSLHYVFGAGTKVTVL
notes: also called WT; parental MPH12-wt
[5]
  RSV IC 50 (ng/mL), GFP-based in vitro neutralization: 47.7 ng/mL
[6]
  MPV IC50 (ng/mL), GFP-based in vitro neutralization: 24.6 ng/mL
[7]
  MPV IC50 (nM), neutralization of MPV A1/6621: 0.0671 nM
DS-Cav1 RSV F [8]
  EC50: 0.0326 µg/mL
[9]
  Kd: 0.75 nM
[10]
  Kd: 0.001 nM
[11]
  Kd: 1.7 nM
[12]
  RSV IC50 (ng/ml), neutralization of A/Randall: 23.1 ng/mL
RSV-B B9320 F protein [13]
  RSV IC50 (ng/ml), neutralization of B/9320: 3.29 ng/mL
[14]
  RSV IC50 (ng/ml), neutralization of A/A2: 142 ng/mL
[15]
  RSV IC50 (ng/ml), neutralization of B/9727: 19.9 ng/mL
[16]
  Kd: 0.42 nM
[17]
  Kd: 0.026 nM
[18]
  Kd: 1.1 nM

B3: MPH12 (antibody, V domains shown)
VH: B2 VH
VL: B2 VL
notes: also called MPH12-rIgG1; MPH12-rIgG1-LS
[19]
  EC50 (read off the curve): ~0.01 µg/mL
[20]
  EC50 (read off the curve): ~0.03 µg/mL
DS-Cav1 RSV F [21]
  EC50 (read off the curve): ~0.002 µg/mL

B4: MPK51-v1.1-rIgG1m17,1-LS (antibody, V domains shown)
VH: QVQLVESGGGLVKPGGSLRLSCAASGFRISGYYMIWVRQAPGKGLEWISAISGMSSYITYADSVKGRFTVSRDNGQNSLFLEMKSLRGEDTAVYFCAREEVPSPGPFDLWGQGTPVTVSS
VL: QSVVTQPPSVSGAPGQRVTIFCTGSTSNIGAGYDVHWYQHLPGTAPRLLIFRNNNRPSGVPDRFSGFKSGTSASLAIIGLQVEDEADYYCQSYDRNMDGWAFGGGTKLTVL
notes: called the parental mAb (v1.1)
[22]
  Binding (FACS) relative to parental mAb MPK51-v1.1: 1
biot-RSV-F wt [23]
  Kd: < 0.001 nM

B5: MPK77-v1.1-rIgG1m17,1-LS (antibody, V domains shown)
VH: QVQLVESGGGLVKPGGSLRLSCAASKSFSGYYMIWIRQAPGRGLEWIADISGSSTYTDYADSVKGRFTISRDNTRNTLYLQMNSLRPEDTAVYYCATEQVPSPGPFDLWGPGTLVTVSS
VL: QSVLTQPPSVSGAPGQRVIISCTGSSSNIGAGYDVHWYQQFPGTSPKLLIYRNTNRPSGVPDRFSGFKSGASAALAITGLQAEDEADYYCQSYDRSLSGWAFGGGTKVTVL
notes: called the parental mAb (v1.1); also called MPK77-v1.1-rIgG1-LS
biot-RSV-F wt [24]
  Kd: < 0.001 nM
biot-RSV-F wt [25]
  Kd: < 0.001 nM
[26]
  Binding (FACS) relative to parental mAb MPK77-v1.1: 1

B6: MPK190 (antibody, V domains shown)
VH: B1 VH with Q1E
VL: QSVLTQPPSVSGAPGQRVTISCTGSNSNIGAGYDVHWYQHLPGKAPKVLIYGNNNRPSVVPDRFSGSNSGASASLAISGLQAEDEADYFCQSYDRRLSGPIFGGGTKLTVL
notes: Tested as MPK190-rIgG1-LS (IgG1 with M428L/N434S); also called MPK190-rIgG1-LS; MPK190-rIgG1-LS(4B6)
[27]
  EC50: 0.084 µg/mL
[28]
  EC50: 0.062 µg/mL

B7: MPK65-v2 (antibody, human IgG1, V domains shown)
VH: QVPLVQSGAEVKKPGESLKISCKGSGYSFINYWIGWVRQMPGKGLEWMGVIYPFDSDTKYSPSFQGHVTISADKSSNTAYVQWSSLKASDTAMYYCARFTFGIAVVTDDVSGEGQAFEIWGQGTMVTVSS
VL: EIVMMQSPATLSVSPGERATLSCRASQSVAGNLAWYQQRPGQAPRLLIYGASTRATGVPARFSGSGSETEFTLTISSLQSEDFAVYYCHQYSNWPQAFGQGTRLDIK
notes: also called MPK65-v2-rIgG1-LS
[29]
  Kd: < 0.1 nM

B8: MPK36-v3 (antibody, V domains shown)
VH: EVQLVESGGGLVKPGGSLRLSCAASFTISGYYMIWIRQAPGKGLEWISYISGSSTYTNYADSVKGRFTISRDNGQNTLYLHMTSLRADDTALYYCATEQTPSPGPFDLWGQGTLVTVSS
VL: QTVVTQPPSVSGAPGQRVTISCSGTSSNIGAGYDVHWYQQFPGTSPKLLIYRNFNRPSGVPDRFSGSKSGSSASLAIAGLQAEDEADYYCQSYDKSLDGWVFGGGTKVTVL
notes: also called MPK36-v3-rIgG1-LS
[30]
  Kd: ~0.001 nM
